The results in this text go back to US20230092787A1 (UNIVERSITY OF VIRGINIA PATENT FOUNDATION, published 2023).

Test [1] deals with T1, integrin alphav beta3 (αvβ3), human, on tumor cell lines (human, UniProt P06756 31-1048; P05106 27-788).
T1 construct: whole, on cells; Endogenous heterodimer on human DIPG and GBM tumor cell lines; also called integrin αvβ3; ITGAV/ITGB3
In words: flow cytometry, PE-LM609 on GBM U87 cells. As for the experimental part:
(§1) Human T cell analysis of ex vivo expanded CAR T cells, and T cells isolated from mouse blood, brain, and spleen was performed using antibodies against CD3 (HIT3a), CD4 (OKT4), CD8 (SK1), CD45RO (UCH1.1), CD45RA (H100), CCR7 (G043H7), CD127 (A019D5), PD-1 (EH12.2H7), LAG-3 (11C3C65), TIM-3 (F38-2E2), CD45 (2D1), and TCF-1 (7F11A10) (from BioLegend, San Diego, Calif., United States of America). Expression of integrin αᵥβ₃ CAR was detected using biotinylated protein L (Thermo Fisher Scientific, Waltham, Mass., United States of America) followed by streptavidin-conjugated PE (BioLegend, San Diego, Calif., United States of America). […] Sample data was acquired on a NovoCyte 3005 Flow Cytometer (ACEA Biosciences Inc., San Diego, Calif., United States of America) and analyzed using data analysis software sold under the tradename FLOWJO™ v10 (FlowJo LLC, Ashland, Oreg., United States of America).
(§2) Tumor cell line expression of integrin αᵥβ₃ was measured by flow cytometry. More particularly, cell surface expression of integrin αᵥβ₃ was evaluated by flow cytometry staining with phycoerythrin-conjugated anti-integrin αᵥβ₃ monoclonal antibody (clone LM609) on diffuse intrinsic pontine glioma (DIPG), neuroblastoma, glioblastoma (GBM), triple-negative breast, bladder, rhabdomyosarcoma (RMS), lung, cervical squamous cell carcinoma, and melanoma tumor cell lines. […]
A general note: In flow cytometry, cells or beads pass a laser one at a time.

Test [2] deals with T1, integrin alphav beta3 (αvβ3), human, on …. In words: flow cytometry, PE-LM609 on GBM U251 cells. As for the experimental part:
as §1, §2

For test [3] the target is unchanged. In words: flow cytometry, PE-LM609 on SU-DIPG-36 cells. As for the experimental part: as §1, §2
The target is the same in test [4]. As to the kind of experiment: flow cytometry, PE-LM609 on SU-DIPG-27 cells. The procedure: as §1, §2
Test [5] shares this target. In words: flow cytometry, PE-LM609 on SU-DIPG-17 cells. The procedure:
as §1, §2

Test [6] has the same target. As to the kind of experiment: flow cytometry, PE-LM609 on SU-DIPG-IV cells. As for the experimental part: as §1, §2
Test [7] shares this target. In words: flow cytometry, PE-LM609 on SU-DIPG-XIII cells. The procedure: as §1, §2
The target is the same in test [8]. In words: flow cytometry, PE-LM609 on SU-DIPG-21 cells. The procedure: as §1, §2

T1 sequence (P06756 31-1048, chain 1 of 2): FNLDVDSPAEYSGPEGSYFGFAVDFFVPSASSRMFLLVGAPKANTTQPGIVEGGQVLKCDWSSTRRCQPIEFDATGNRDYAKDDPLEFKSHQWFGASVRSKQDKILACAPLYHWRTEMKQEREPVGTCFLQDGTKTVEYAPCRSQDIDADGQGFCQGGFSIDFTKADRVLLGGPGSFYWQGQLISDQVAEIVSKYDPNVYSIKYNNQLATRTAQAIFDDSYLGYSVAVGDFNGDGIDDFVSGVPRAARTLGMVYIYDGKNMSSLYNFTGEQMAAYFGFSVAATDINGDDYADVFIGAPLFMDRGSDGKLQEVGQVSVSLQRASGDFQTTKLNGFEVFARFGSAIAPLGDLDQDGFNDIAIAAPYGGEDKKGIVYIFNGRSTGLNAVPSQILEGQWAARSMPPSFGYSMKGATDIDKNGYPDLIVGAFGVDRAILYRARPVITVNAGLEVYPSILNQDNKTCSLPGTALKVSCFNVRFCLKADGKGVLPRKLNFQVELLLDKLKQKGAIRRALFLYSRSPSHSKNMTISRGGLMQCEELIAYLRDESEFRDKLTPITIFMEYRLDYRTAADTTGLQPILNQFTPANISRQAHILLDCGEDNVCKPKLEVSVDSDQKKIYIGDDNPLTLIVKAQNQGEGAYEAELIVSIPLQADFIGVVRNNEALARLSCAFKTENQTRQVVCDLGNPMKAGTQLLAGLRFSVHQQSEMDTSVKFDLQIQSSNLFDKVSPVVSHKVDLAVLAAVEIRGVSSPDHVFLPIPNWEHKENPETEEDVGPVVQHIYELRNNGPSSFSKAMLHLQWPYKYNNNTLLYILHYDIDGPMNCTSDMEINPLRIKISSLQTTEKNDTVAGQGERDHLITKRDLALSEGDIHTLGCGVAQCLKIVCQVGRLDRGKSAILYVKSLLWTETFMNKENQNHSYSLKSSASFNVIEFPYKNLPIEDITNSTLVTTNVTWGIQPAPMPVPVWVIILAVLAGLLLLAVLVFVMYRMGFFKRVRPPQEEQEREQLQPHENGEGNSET
T1 sequence (P05106 27-788, chain 2 of 2): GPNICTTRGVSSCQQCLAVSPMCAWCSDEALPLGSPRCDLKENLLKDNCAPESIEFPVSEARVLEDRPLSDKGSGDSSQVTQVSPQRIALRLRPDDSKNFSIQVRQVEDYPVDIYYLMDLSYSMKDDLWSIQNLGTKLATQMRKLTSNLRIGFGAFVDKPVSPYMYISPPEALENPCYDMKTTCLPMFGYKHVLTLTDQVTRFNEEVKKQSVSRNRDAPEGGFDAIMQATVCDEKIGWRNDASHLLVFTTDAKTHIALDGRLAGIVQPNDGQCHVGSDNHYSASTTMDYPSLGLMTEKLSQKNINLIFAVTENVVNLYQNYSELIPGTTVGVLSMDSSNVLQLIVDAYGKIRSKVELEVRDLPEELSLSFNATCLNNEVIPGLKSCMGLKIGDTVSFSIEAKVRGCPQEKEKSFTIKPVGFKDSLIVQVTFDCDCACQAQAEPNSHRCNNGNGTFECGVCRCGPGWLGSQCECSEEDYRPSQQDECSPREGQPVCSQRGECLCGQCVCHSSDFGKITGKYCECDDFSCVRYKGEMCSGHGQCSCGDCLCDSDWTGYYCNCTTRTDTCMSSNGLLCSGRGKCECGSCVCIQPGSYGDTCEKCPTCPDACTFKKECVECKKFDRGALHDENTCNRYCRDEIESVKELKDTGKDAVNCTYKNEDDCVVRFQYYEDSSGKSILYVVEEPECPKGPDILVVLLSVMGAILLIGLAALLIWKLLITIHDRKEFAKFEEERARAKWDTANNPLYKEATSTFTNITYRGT

B1: phycoerythrin-conjugated anti-integrin αvβ3 monoclonal antibody (clone LM609) (antibody, V domains shown)
VH: EVQLEESGGGLVKPGGSLKLSCAASGFAFSSYDMSWVRQIPEKRLEWVAKVSSGGGSTYYLDTVQGRFTISRDNAKNTLYLQMSSLNSEDTAMYYCARHNYGSFAYWGQGTLVTVSA
VL: ELVMTQTPATLSVTPGDSVSLSCRASQSISNHLHWYQQKSHESPRLLIKYASQSISGIPSRFSGSGSGTDFTLSINSVETEDFGMYFCQQSNSWPHTFGGGTKLEIK
notes: Bought reagent (Millipore Sigma), conjugated to phycoerythrin; also called PE-conjugated anti-integrin αvβ3 antibody (LM609; Millipore Sigma)
Consider B1, for which the “MFI ratio (MFI/MFI isotype control)” value in test [1] was determined as 17; in test [2] it was 2; in test [3] it was 16; in test [4] it was 4; in test [5], 5; in test [6], 8. Moreover, the figures for the “MFI ratio (MFI/MFI isotype control)” value in test [7] and in test [8] were 5 and 6, respectively.
